The source of these data is the RNAGym collection of RNA variant scans (doi:10.1093/molbev/msab373).

The chains are these.
B1: Azoarcus group I ribozyme (parent)
chain: GUGCCUUGCGCCGGGAAACCACGCAAGGGAUGGUGUCAAAUUCGGCGAAACCUAAGCGCCCGCCCGGGCGUAUGGCAACGCCGAGCCAAGCUUCGGCGCCUGCGCCGAUGAAGGUGUAGAGACUAGACGGCACCCACCUAAGGCAAACGCUAUGGUGAAGGCAUAGUCCAGGGAGUGGCGAAAGUCACACAAACCGG

This data set covers variants of B1. Briefly: reverse-splicing fitness (ratio to wild type); higher = more active; in vitro selection; Mg2+ level not given. Summed up:
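An in vitro group I ribozyme library with randomized positions was T7-transcribed and gel-purified. In triplicate, 10 pmol RNA in EPPS pH 7.5 was reacted with 50 pmoles of a 30-nt RNA substrate for 1 h at 37 °C across several added MgCl2 levels (1–48 mM), then stopped with EDTA. Products were reverse transcribed from a substrate-complementary primer, PCR-amplified and sequenced (HiSeq 4000). Fitness is a variant's read proportion after selection over that before, normalised to wild type.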
As to GUGCCUUGCGCCGGGAAACCACGCAAGGGAUGGUGUCAAAUUCGGCGAAACCUAAGCGCCCGCCCGGGCGUAUGGCAACGCAGAGCCAAGCUUCGGCGCCUGCGCCGAUGGAGGUGUAGUGACUAGACGGCACCCACCUAAGGCCAACGCUAUGGUGAAGGCAUAGUCCAGGGAGGGGCGAAAGUCACACAAACCGG [C82A A111G A120U A145C U176G], the reverse-splicing fitness came out at 0.00284.
Then GUGCCUUGCGCCGGGAAACCACGCAAGGGAUGGUGUCAAAUUCGGCGAAACCUAAGCGCCCGCCCGGGCGUAUGGCAACGCAGAGCCAAGCUUCGGCGCCUGCGCCGAUGGAGGUGUAGUGACUAGACGGCACCCACCUAAGGCCAACGCUAUGGUGAAGGCAUAGUCCAGGGAGAGGCGAAAGUCACACAAACCGG [C82A A111G A120U A145C U176A], with 0.00841; and GUGCCUUGCGCCGGGAAACCACGCAAGGGAUGGUGUCAAAUUCGGCGAAACCUAAGCGCCCGCCCGGGCGUAUGGCAACGCAGAGCCAAGCUUCGGCGCCUGCGCCGAUGGAGGUGUAGUGACUAGACGGCACCCACCUAAGGCCAACGCUAUGGUGAAGGCAUAGUCUAGGGAGGGGCGAAAGUCACACAAACCGG [C82A A111G A120U A145C C169U U176G], with 0.00153; and GUGCCUUGCGCCGGGAAACCACGCAAGGGAUGGUGUCAAAUUCGGCGAAACCUAAGCGCCCGCCCGGGCGUAUGGCAACGCAGAGCCAAGCUUCGGCGCCUGCGCCGAUGGAGGUGUAGUGACUAGACGGCACCCACCUAAGGCCAACGCUAUGGUGAAGGCAUAGUCUAGGGAGAGGCGAAAGUCACACAAACCGG [C82A A111G A120U A145C C169U U176A], with 0.00302.
With GUGCCUUGCGCCGGGAAACCACGCAAGGGAUGGUGUCAAAUUCGGCGAAACCUAAGCGCCCGCCCGGGCGUAUGGCAACGCAGAGCCAAGCUUCGGCGCCUGCGCCGAUGGAGGUGUAGUGACUAGACGGCACCCACCUAAGGCCAACGCUAUGGUGAAGGCAUAGUCUAGGGAGCGGCGAAAGUCACACAAACCGG [C82A A111G A120U A145C C169U U176C], the reverse-splicing fitness worked out at 0.00282.
Then GUGCCUUGCGCCGGGAAACCACGCAAGGGAUGGUGUCAAAUUCGGCGAAACCUAAGCGCCCGCCCGGGCGUAUGGCAACGCAGAGCCAAGCUUCGGCGCCUGCGCCGAUGGAGGUGUAGUGACUAGACGGCACCCACCUAAGGCCAACGUUAUGGUGAAGGCAUAGUCUAGGGAGAGGCGAAAGUCACACAAACCGG [C82A A111G A120U A145C C150U C169U U176A], with 0.0026.
Then GUGCCUUGCGCCGGGAAACCACGCAAGGGAUGGUGUCAAAUUCGGCGAAACCUAAGCGCCCGCCCGGGCGUAUGGCAACGCAGAGCCAAGCUUCGGCGCCUGCGCCGAUGGAGGUGUAGUGACUAGACGGCACCCACCUAAGGCCAACGUUAUGGUGAAGGCAUAGUCUAGGGAGCGGCGAAAGUCACACAAACCGG [C82A A111G A120U A145C C150U C169U U176C], with 0.0025; and GUGCCUUGCGCCGGGAAACCACGCAAGGGAUGGUGUCAAAUUCGGCGAAACCUAAGCGCCCGCCCGGGCGUAUGGCAACGCAGAGCCAAGCUUCGGCGCCUGCGCCGAUGGAGGUGUAGUGACUAGACGGCACCCACCUAAGGCCAACGUUAUGGUGAAGGCAUAGUCUAGGGAGGGGCGAAAGUCACACAAACCGG [C82A A111G A120U A145C C150U C169U U176G], with 0.00193.
Then GUGCCUUGCGCCGGGAAACCACGCAAGGGAUGGUGUCAAAUUCGGCGAAACCUAAGCGCCCGCCCGGGCGUAUGGCAACGCAGAGCCAAGCUUCGGCGCCUGCGCCGAUGGAGGUGUAGUGACUAGACGGCACCCACCUAAGGCCAACGCUAUGGUGAAGGCAUAGUCAAGGGAGAGGCGAAAGUCACACAAACCGG [C82A A111G A120U A145C C169A U176A], with 0.00258; and GUGCCUUGCGCCGGGAAACCACGCAAGGGAUGGUGUCAAAUUCGGCGAAACCUAAGCGCCCGCCCGGGCGUAUGGCAACGCAGAGCCAAGCUUCGGCGCCUGCGCCGAUGGAGGUGUAGUGACUAGACGGCACCCACCUAAGGCCAACGCUAUGGUGAAGGCAUAGUCAAGGGAGGGGCGAAAGUCACACAAACCGG [C82A A111G A120U A145C C169A U176G], with 0.00163.
With GUGCCUUGCGCCGGGAAACCACGCAAGGGAUGGUGUCAAAUUCGGCGAAACCUAAGCGCCCGCCCGGGCGUAUGGCAACGCAGAGCCAAGCUUCGGCGCCUGCGCCGAUGGAGGUGUAGUGACUAGACGGCACCCACCUAAGGCCAACGCUAUGGUGAAGGCAUAGUCAAGGGAGCGGCGAAAGUCACACAAACCGG [C82A A111G A120U A145C C169A U176C], the reverse-splicing fitness was found to be 0.00231.
As for GUGCCUUGCGCCGGGAAACCACGCAAGGGAUGGUGUCAAAUUCGGCGAAACCUAAGCGCCCGCCCGGGCGUAUGGCAACGCAGAGCCAAGCUUCGGCGCCUGCGCCGAUGGAGGUGUAGUGACUAGACGGCACCCACCUAAGGCCAACGUUAUGGUGAAGGCAUAGUCCAGGGAGAGGCGAAAGUCACACAAACCGG [C82A A111G A120U A145C C150U U176A], the reverse-splicing fitness came out at 0.00447.
Then GUGCCUUGCGCCGGGAAACCACGCAAGGGAUGGUGUCAAAUUCGGCGAAACCUAAGCGCCCGCCCGGGCGUAUGGCAACGCAGAGCCAAGCUUCGGCGCCUGCGCCGAUGGAGGUGUAGUGACUAGACGGCACCCACCUAAGGCCAACGUUAUGGUGAAGGCAUAGUCCAGGGAGGGGCGAAAGUCACACAAACCGG [C82A A111G A120U A145C C150U U176G], with 0.00292; and GUGCCUUGCGCCGGGAAACCACGCAAGGGAUGGUGUCAAAUUCGGCGAAACCUAAGCGCCCGCCCGGGCGUAUGGCAACGCAGAGCCAAGCUUCGGCGCCUGCGCCGAUGGAGGUGUAGUGACUAGACGGCACCCACCUAAGGCCAACGUUAUGGUGAAGGCAUAGUCCAGGGAGCGGCGAAAGUCACACAAACCGG [C82A A111G A120U A145C C150U U176C], with 0.00422; and GUGCCUUGCGCCGGGAAACCACGCAAGGGAUGGUGUCAAAUUCGGCGAAACCUAAGCGCCCGCCCGGGCGUAUGGCAACGCAGAGCCAAGCUUCGGCGCCUGCGCCGAUGGAGGUGUAGUGACUAGACGGCACCCACCUAAGGCGAACGCUAUGGUGAAGGCAUAGUCCAGGGAGUGGCGAAAGUCACACAAACCGG [C82A A111G A120U A145G], with 0.0318.
